Literature values, collected in paper PMC7614842.

Target: C3d C3d (Mus musculus) (UniProt P01027)
Chain of UniProt P01027 (P01027 1002-1303): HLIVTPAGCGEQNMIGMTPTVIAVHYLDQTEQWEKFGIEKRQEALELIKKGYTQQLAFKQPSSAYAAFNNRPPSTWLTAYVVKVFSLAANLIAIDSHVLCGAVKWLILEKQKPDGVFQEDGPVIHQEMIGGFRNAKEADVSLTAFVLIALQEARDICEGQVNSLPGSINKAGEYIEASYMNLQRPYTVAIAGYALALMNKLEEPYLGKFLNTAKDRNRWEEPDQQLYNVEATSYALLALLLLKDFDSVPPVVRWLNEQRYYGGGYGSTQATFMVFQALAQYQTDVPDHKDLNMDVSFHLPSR

Kd: 140 nM
Substance: CR2 (from UniProt P19070)
